These sequences were tested on MS2 coat protein (assay: apparent KD of MS2 coat protein; higher = weaker reporter binding). Conditions: Eterna round: R107; input ligand: none.
In short: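 Designed RNA switches were transcribed on-chip from Illumina sequencing clusters and titrated with SNAP-549-labelled MS2 coat protein in twofold steps from 0.7 or 1.5 nM up to 3 µM. Each step lasted 0.8–1.5 h at first and 10–20 min by the end, in 100 mM Tris-HCl pH 7.5, 80 mM KCl and 4 mM MgCl2, without or with constant ligand. Apparent KD is the median, for each design, of fits to normalised cluster binding curves.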

Going from “AUUGUCGCGUCGGCCGCCACUGUCAUGGUUUUCGUGGAACACAUGAGGAUCACCCAUGUAAUUGACAGGACCGGGACGUGGCGGC [Vevea]” to “ACAUGAGGAUCACCCAUGUACAUGAGGGAAGGAGCGGUACAUGUACCAGGUAGGUCGCCCAACAGCAUCAGCCAUGUACAUCAGC [ggvmullin]”, the “apparent KD of MS2 coat protein” value rises from 0.00864 µM to 0.0761 µM (8.8-fold).

Compared with “CGGGUUGGACCAGGAAAUGGUCUGACGCGCCGAGGACCGGUACGGCCGCCACUCGCGGGUACAUGAGGAUCACCCAUGUCGGUGG [#1 Same State - Tryptophan A Attempt #12 (HarryS)]”, “ACAUUUAACUGAAGGAGCGUGAUUAACAUGAGGAUCACCCAUGUAACUUAGAUGCUUAUAUCACAGGUAGGUCGCAGACUAAUGA [JR_ExcArginiB_Sub011]” is 3.7-fold lower in “apparent KD of MS2 coat protein” value: 0.0504 µM for the first, 0.0136 µM for the second.

Compared with “AGCAGCUCGAAAGAGUUGCACUCAUGUGAAGGAGCGCGCGUUAGCGCAGGUAGGUCGCACAUGAGGAUCACCCAUGUACCUUCUA [MAT - Exclusion Arginine A - Mod of Eli - D15]”, “GGUUUAUAUAUAUAUAUAUAGAUUACUGAAGGAGCGGGAAAUAACCCAGGUAGGUCGCAGAGAUCCACAUGAGGAUCACCCAUGU [!0.E]” is 4.3-fold lower in “apparent KD of MS2 coat protein” value: 0.173 µM for the first, 0.0402 µM for the second.

First: CUCCUGGGAGCGGCCGCCACUGGAGGCCUUGCGCGACAUGAGGAUCACCCAUGUUGGCCCGGCCUCAGGACCGGGUUCGCGCGAG [Same State - Tryptophan B Attempt #2]
Second: GGGUACAUCGCGGCCGCCACUGGUGUAAAUACAUGAGGAUCACCCAUGUCGAUGGAGACAUCGGGUAGGACCGGGUGAUGUACCG
The “apparent KD of MS2 coat protein” value of the first is 1.9-fold lower: 0.0113 µM for the first, 0.0219 µM for the second.

Going from “AUAAUAAGGUGAUCCUAAGUCGUACCGUAACGAGGACCGGUACGGCCGCCACUCGAACAUGAGGAUCACCCAUGUAUGUACGACA [M'-T'-T-MS2-T'' - Design 6]” to “UAACAUGAGGCGGCCGCCACUCAACAUGAGGAUCACCCAUGUAUGUGUAAACAUGAGGAUCACCCGAGGACCGGGCCCUUGUAAU [Same State Tryptophan B 4]”, the “apparent KD of MS2 coat protein” value falls from 0.0561 µM to 0.0334 µM (1.7-fold).

First: AAUCGUAAGGCGGCCGCCACUACACAUGAGGAUCACCCAUGUCUCGCGGGCUUGCGUUGGGAUUGUAGGACCGGGCCAGUAAUAA [Exclusion - Tryptophan B (Freestyle 12)]
Second: GGCCUAUGGCGCGAUACCAGCUUGAGUGUACUGGCCAGGUACAUGAGGAUCACCCAUGUAAGCCCUUGGCAGCGCGUCAUAGGCC [#1 Exclusion - Theophylline B Attempt #23 (HarryS)]
The “apparent KD of MS2 coat protein” value of the first is 2.7-fold higher: 0.0264 µM for the first, 0.00995 µM for the second.

First: AGGACGGUCGGAAGGAGCGGUACAUGAGGAUCACCCAUGUACUCCUGGGCAUCCGUAGUGUGCCAGGUAGGUCGCCGAUUGCGGG [XArg-B8]
Second: UGUAAUGGGAUCAACCCAUGAGAGUCUGAAGGAGCGAUCGUAAGAUCAGGUAGGUCGCAGGAGACAUGAGGAUCACCCAUGUAUA [Arg A Ex t2]
The “apparent KD of MS2 coat protein” value of the first is 3.2-fold lower: 0.0121 µM for the first, 0.0387 µM for the second.

Same assay, conditions: Eterna round: R107; input ligand: theophylline 20 uM

Going from “AUUGUCGCGUCGGCCGCCACUGUCAUGGUUUUCGUGGAACACAUGAGGAUCACCCAUGUAAUUGACAGGACCGGGACGUGGCGGC [Vevea]” to “ACAUGAGGAUCACCCAUGUACAUGAGGGAAGGAGCGGUACAUGUACCAGGUAGGUCGCCCAACAGCAUCAGCCAUGUACAUCAGC [ggvmullin]”, the “apparent KD of MS2 coat protein” value rises from 0.0111 µM to 0.102 µM (9.2-fold).

Going from “AGUUAUUCGAACAUGGUUGACGAGUGGCAACGAGGACCGGUACGGCCGCCACUCGAAUAAACAUGAGGAUCACCCAUGUACAAAU [T''-M'-T'-T-MS2 - Design 10]” to “CGAGUUCGCUGAUGGGCUACGUCAGGUGAUACCAGCCACUCCCGCGGCCCUUGGCAGCACAUGAGGAUCACCCAUGUAGAGCUUG [Esinve]”, the “apparent KD of MS2 coat protein” value falls from 0.264 µM to 0.0286 µM (9.2-fold).

Compared with “CGGGUUGGACCAGGAAAUGGUCUGACGCGCCGAGGACCGGUACGGCCGCCACUCGCGGGUACAUGAGGAUCACCCAUGUCGGUGG [#1 Same State - Tryptophan A Attempt #12 (HarryS)]”, “ACAUUUAACUGAAGGAGCGUGAUUAACAUGAGGAUCACCCAUGUAACUUAGAUGCUUAUAUCACAGGUAGGUCGCAGACUAAUGA [JR_ExcArginiB_Sub011]” is 3.8-fold lower in “apparent KD of MS2 coat protein” value: 0.0693 µM for the first, 0.0183 µM for the second.

Going from “AGCAGCUCGAAAGAGUUGCACUCAUGUGAAGGAGCGCGCGUUAGCGCAGGUAGGUCGCACAUGAGGAUCACCCAUGUACCUUCUA [MAT - Exclusion Arginine A - Mod of Eli - D15]” to “GGUUUAUAUAUAUAUAUAUAGAUUACUGAAGGAGCGGGAAAUAACCCAGGUAGGUCGCAGAGAUCCACAUGAGGAUCACCCAUGU [!0.E]”, the “apparent KD of MS2 coat protein” value falls from 0.211 µM to 0.0553 µM (3.8-fold).

“CUCCUGGGAGCGGCCGCCACUGGAGGCCUUGCGCGACAUGAGGAUCACCCAUGUUGGCCCGGCCUCAGGACCGGGUUCGCGCGAG [Same State - Tryptophan B Attempt #2]” and “CCUAUCCAGUCGGCCGCCACUGACCAUUUGGAACAGUGGGUGAAAACAUGAGGAUCACCCAUGUACAGGACCGGGACUGUAUAGG [Ex Tryptophan B 20]” are within 1.5-fold of each other in “apparent KD of MS2 coat protein” value: 0.0123 µM for the first, 0.0157 µM for the second.

First: GGGUACAUCGCGGCCGCCACUGGUGUAAAUACAUGAGGAUCACCCAUGUCGAUGGAGACAUCGGGUAGGACCGGGUGAUGUACCG
Second: AAAUUAUAGGCGGCCGCCACUAGAGUUAGGCUUAUGUACUGGGUAACAUGAGGAUCACCCAUGUAUAGGACCGGGCCAUAAUAAA [Same State - Tryptophan B (Freestyle 3)]
The “apparent KD of MS2 coat protein” value of the first is 2-fold lower: 0.0373 µM for the first, 0.0762 µM for the second.

Going from “AUAAUAAGGUGAUCCUAAGUCGUACCGUAACGAGGACCGGUACGGCCGCCACUCGAACAUGAGGAUCACCCAUGUAUGUACGACA [M'-T'-T-MS2-T'' - Design 6]” to “UAACAUGAGGCGGCCGCCACUCAACAUGAGGAUCACCCAUGUAUGUGUAAACAUGAGGAUCACCCGAGGACCGGGCCCUUGUAAU [Same State Tryptophan B 4]”, the “apparent KD of MS2 coat protein” value falls from 0.0961 µM to 0.0467 µM (2.1-fold).

With “AAAUAGGUAGGAGAUACCAGAUACGUUAACAUGAGGAUCACCCAUGUGUAUGCACUUAGUGUCCCUUGGCAGCUCGAGGAUCUGG [#18 Same State - Theophylline B]” the “apparent KD of MS2 coat protein” value was 0.037 µM.

— the supplement of paper PMC9170038
